Biological target: human EGFR-WT (human) (UniProt P00533)

potency of hEpiregulin against hEGF for recruitment of the seven SH2 biosensors to the plasma membrane (ebBRET, Fig. 2a), HEK293 cells with EGFR-WT, 10 min (fold less potent than hEGF): > 100
Substance: human recombinant Epiregulin (from UniProt O14944 63-108) (ligand)
